From patent publication US20240279318A1 (NANJING LEGEND BIOTECH, published 2024)
Read-outs that look alike come from different tables or passages of the source. Values belong to the binder of their own block, whether it stands above or below them.

Experiments:
[1] = target: T1, AFP158/HLA-A*02:01 complex (human); test: SPR, scFv-mIgG2aFc from supernatant captured, complex as analyte
T1 construct: biotinylated on the BSP by BirA for ELISA and panning; also called biotinylated AFP158/HLA-A*02:01 complex; Bio-AFP158
Description: (§1) The binding affinity between selected antibodies and AFP158/HLA-A*02:01 complex was determined by surface plasmon resonance (SPR) on a BIAcore T200 instrument (GE Healthcare). The experiment was carried out as follows. The purified sdAb/scFv-mIgG2aFc protein were captured through mIgG2a-Fc onto the sensorchip. […] On-rate (kₐ) and off-rate (kd) were calculated based on association and dissociation curve, and were used to estimate the equilibrium dissociation constant (KD).
(§2) Humanized heavy chains and light chains were combined, and used to produce a series of humanized antibodies. These antibodies were synthesized as scFv-mIgG2aFc and transiently produced using HEK293 cells. The antibodies in the supernatant were subjected to SPR affinity assessment.

[2] = target: T1, AFP158/HLA-A*02:01 complex; test: as above; remark: listed apart in the source
Description: as §1, §2

[3] = target: T1, AFP158/HLA-A*02:01 complex; test: as above; remark: listed apart in the source
Description: as §1, §2

[4] = target: ATG9A peptide/HLA-A*02:01 complex (recombinant) (human); test: SPR
[5] = target: BRCA2 peptide/HLA-A*02:01 complex (recombinant) (human); test: SPR
[6] = target: CDC14A peptide/HLA-A*02:01 complex (recombinant) (human); test: SPR
[7] = target: NR2E1 peptide/HLA-A*02:01 complex (recombinant) (human); test: SPR
[8] = target: OR1I1 peptide/HLA-A*02:01 complex (recombinant) (human); test: SPR
[9] = target: OR51B6 peptide/HLA-A*02:01 complex (recombinant) (human); test: SPR
[10] = target: PTP4A1 peptide/HLA-A*02:01 complex (recombinant) (human); test: SPR
[11] = target: RP1 peptide/HLA-A*02:01 complex (recombinant) (human, UniProt P16213 21-119 (Pongo pygmaeus entry)); test: SPR
[12] = target: RCL1 peptide/HLA-A*02:01 complex (recombinant) (human, UniProt P16213 21-119 (Pongo pygmaeus entry)); test: SPR
[13] = target: ZNF566 peptide/HLA-A*02:01 complex (recombinant) (human); test: SPR
[14] = target: T1, AFP158/HLA-A*02:01 complex; test: SPR; vs AS170036 VL1VH1
[15] = target: T1, AFP158/HLA-A*02:01 complex; test: SPR; vs AS170036 VL1VH1; remark: listed apart in the source
[16] = target: T1, AFP158/HLA-A*02:01 complex; test: SPR, crude scFv captured;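 note: Peptide–MHC complex flowed at several concentrations over sensorchip-captured scFv, Kd derived from on- and off-rates obtained from the association and dissociation curves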

B1: AS179723 VL1g1VH1g1 scFv-mIgG2aFc (Fc fusion, not shown: a dimerising Fc or GST)
scFv: QSVLTQPPSASGTPGQRVTISCSGSSNNIGGNYVNWYQQLPGTAPKLLIYDNKNRPSGVPDRFSGSKSGTSASLAISGLQSEDEADYYCASWDDSLSAVVFGGGTKLTVLGGGGSGGGGSGGGGSEVQLVESGGGLVQPGGSLRLSCAASGFTFLNYAMSWVRQAPGKGLEWVSSNSGAGSTYYADSVKGRFTISRDNSKNTLYLQMNSLRAEDTAVYYCAKGTNVGSWSSLHYWGQGTLVTVSS
Kd [1]: 320 nM | koff [1]: 0.029 s⁻¹ | kon [1]: 91000 M⁻¹ s⁻¹

B2: AS179723 VL1g1VH1g1-N73Y scFv-mIgG2aFc (Fc fusion, not shown: a dimerising Fc or GST)
chain: QSVLTQPPSASGTPGQRVTISCSGSSNNIGGNYVNWYQQLPGTAPKLLIYDNKNRPSGVPDRFSGSKSGTSASLAISGLQSEDEADYYCASWDDSLSAVVFGGGTKLTVLGGGGSGGGGSGGGGSEVQLVESGGGLVQPGGSLRLSCAASGFTFLNYAMSWVRQAPGKGLEWVSSNSGAGSTYYADSVKGRFTISRDYSKNTLYLQMNSLRAEDTAVYYCAKGTNVGSWSSLHYWGQGTLVTVSS
notes: Humanized
Kd [1]: 56 nM

B3: AS179723 VL1VH1g1 scFv-mIgG2aFc (Fc fusion, not shown: a dimerising Fc or GST)
scFv: QSVLTQPPSASGTPGQRVTISCTGSSNNIGGNYVNWYQQLPGTAPKLLIYDNKNRPSGVPDRFSGSKSGTSASLAISGLQSEDEADYYCASWDDSLSAVVFGGGTKLTVLGGGGSGGGGSGGGGSEVQLVESGGGLVQPGGSLRLSCAASGFTFLNYAMSWVRQAPGKGLEWVSSNSGAGSTYYADSVKGRFTISRDNSKNTLYLQMNSLRAEDTAVYYCAKGTNVGSWSSLHYWGQGTLVTVSS
Kd [1]: 310 nM | koff [1]: 0.03 s⁻¹ | kon [1]: 99000 M⁻¹ s⁻¹

B8: AS179723 VL1VH1 scFv-mIgG2aFc (Fc fusion, not shown: a dimerising Fc or GST)
scFv: QSVLTQPPSASGTPGQRVTISCTGSSNNIGGNYVNWYQQLPGTAPKLLIYDNKNRPSGVPDRFSGSKSGTSASLAISGLQSEDEADYYCASWDDSLSAVVFGGGTKLTVLGGGGSGGGGSGGGGSEVQLVESGGGLVQPGGSLRLSCAASGFTFLNYAMSWVRQAPGKGLEWVSSNSGAGSTYYSDSVKGRFTISRDNSKNTLYLQMNSLRAEDTAVYYCAKGTNVGSWSSLHYWGQGTLVTVSS
Kd [1]: 320 nM | koff [1]: 0.031 s⁻¹ | kon [1]: 98000 M⁻¹ s⁻¹

B11: AS170036 VL1VH2 scFv-mIgG2aFc (Fc fusion, not shown: a dimerising Fc or GST)
scFv: QSALTQPRSVSGSPGQSVTISCAGTSSDVGSENYVSWYQQHPGKAPKLMIYQVNKRASGVPDRFSGSKSGNTASLTISGLQAEDEADYYCASYRSSDHNIVFGGGTKLTVLGGGGSGGGGSGGGGSEVQLVESGGGLVQPGGSLRLSCTASGFTFSSYAMSWVRQAPGKGLEWVSTINSGTGSPYYADSVKGRFTISRDNSKNTLYLQMNSLRAEDTAMYYCAKNFFDGSWFLGPPAMDYWGQGTLVTVSS
Kd [3]: 380 nM | koff [3]: 0.071 s⁻¹ | kon [3]: 190000 M⁻¹ s⁻¹

B12: AS170036 VL2VH1 scFv-mIgG2aFc (Fc fusion, not shown: a dimerising Fc or GST)
scFv: QSALTQPRSVSGSPGQSVTISCAGTSSDVGSENYVSWYQQHPGKAPKLLIYQVNKRASGIPDRFSGSKSGNTASLTISGLQAEDEADYYCASYRSSDHNIVFGGGTKLTVLGGGGSGGGGSGGGGSEVQLVESGGGLVQPGGSLRLSCAASGFTFSSYAMSWVRQAPGKGLEWVSTINSGTGSPYYADSVKGRFTISRDNSKNTLYLQMNSLRAEDTAVYYCAKNFFDGSWFLGPPAMDYWGQGTLVTVSS
Kd [3]: 340 nM | koff [3]: 0.095 s⁻¹ | kon [3]: 280000 M⁻¹ s⁻¹

Next, values leading:

Kd [2]: 440 nM | koff [2]: 0.056 s⁻¹ | kon [2]: 130000 M⁻¹ s⁻¹
B4: AS179732 VL1VH1 scFv-mIgG2aFc (Fc fusion, not shown: a dimerising Fc or GST)
scFv: QSVLTQPPSASGTPGQRVTISCTGSSSNIGGNYVNWYQQLPGTAPKLLIYDNSNRASGVPDRFSGSKSGTSASLAISGLQSEDEADYYCASWDDSLSGAVFGGGTKLTVLGGGGSGGGGSGGGGSEVQLVESGGGLVQPGGSLRLSCAASGFTFLNYAMSWVRQAPGKGLEWVSSNSGAGSTYYSDSVKGRFTISRDNSKNTLYLQMNSLRAEDTAVYYCAKGTNVGSWSSLHYWGQGTLVTVSS

Kd [2]: 520 nM | koff [2]: 0.065 s⁻¹ | kon [2]: 130000 M⁻¹ s⁻¹
B5: AS179732 VL1VH1g1 scFv-mIgG2aFc (Fc fusion, not shown: a dimerising Fc or GST; small tags and cut ends)
scFv: QSVLTQPPSASGTPGQRVTISCTGSSSNIGGNYVNWYQQLPGTAPKLLIYDNSNRASGVPDRFSGSKSGTSASLAISGLQSEDEADYYCASWDDSLSGAVFGGGTKLTVLGGGGSGGGGSGGGGSEVQLVESGGGLVQPGGSLRLSCAASGFTFLNYAMSWVRQAPGKGLEWVSSNSGAGSTYYADSVKGRFTISRDNSKNTLYLQMNSLRAEDTAVYYCAKGTNVGSWSSLHYWGQGTLVTVSS

Kd [1]: 360 nM | koff [1]: 0.034 s⁻¹ | kon [1]: 93000 M⁻¹ s⁻¹
B6: AS179723 VL1g1VH1 scFv-mIgG2aFc (Fc fusion, not shown: a dimerising Fc or GST)
scFv: QSVLTQPPSASGTPGQRVTISCSGSSNNIGGNYVNWYQQLPGTAPKLLIYDNKNRPSGVPDRFSGSKSGTSASLAISGLQSEDEADYYCASWDDSLSAVVFGGGTKLTVLGGGGSGGGGSGGGGSEVQLVESGGGLVQPGGSLRLSCAASGFTFLNYAMSWVRQAPGKGLEWVSSNSGAGSTYYSDSVKGRFTISRDNSKNTLYLQMNSLRAEDTAVYYCAKGTNVGSWSSLHYWGQGTLVTVSS

Kd [2]: 450 nM | koff [2]: 0.057 s⁻¹ | kon [2]: 130000 M⁻¹ s⁻¹
B7: AS179732 VL1g1VH1g1 scFv-mIgG2aFc (Fc fusion, not shown: a dimerising Fc or GST; small tags and cut ends)
scFv: QSVLTQPPSASGTPGQRVTISCSGSSSNIGGNYVNWYQQLPGTAPKLLIYDNSNRASGVPDRFSGSKSGTSASLAISGLQSEDEADYYCASWDDSLSGAVFGGGTKLTVLGGGGSGGGGSGGGGSEVQLVESGGGLVQPGGSLRLSCAASGFTFLNYAMSWVRQAPGKGLEWVSSNSGAGSTYYADSVKGRFTISRDNSKNTLYLQMNSLRAEDTAVYYCAKGTNVGSWSSLHYWGQGTLVTVSS

Kd [2]: 54 nM
B9: AS179732 VL1g1VH1g1-N73Y scFv-mIgG2aFc (Fc fusion, not shown: a dimerising Fc or GST)
chain: QSVLTQPPSASGTPGQRVTISCSGSSSNIGGNYVNWYQQLPGTAPKLLIYDNSNRASGVPDRFSGSKSGTSASLAISGLQSEDEADYYCASWDDSLSGAVFGGGTKLTVLGGGGSGGGGSGGGGSEVQLVESGGGLVQPGGSLRLSCAASGFTFLNYAMSWVRQAPGKGLEWVSSNSGAGSTYYADSVKGRFTISRDYSKNTLYLQMNSLRAEDTAVYYCAKGTNVGSWSSLHYWGQGTLVTVSS
notes: Humanized

Kd [2]: 450 nM | koff [2]: 0.056 s⁻¹ | kon [2]: 120000 M⁻¹ s⁻¹
B10: AS179732 VL1g1VH1 scFv-mIgG2aFc (Fc fusion, not shown: a dimerising Fc or GST; small tags and cut ends)
scFv: QSVLTQPPSASGTPGQRVTISCSGSSSNIGGNYVNWYQQLPGTAPKLLIYDNSNRASGVPDRFSGSKSGTSASLAISGLQSEDEADYYCASWDDSLSGAVFGGGTKLTVLGGGGSGGGGSGGGGSEVQLVESGGGLVQPGGSLRLSCAASGFTFLNYAMSWVRQAPGKGLEWVSSNSGAGSTYYSDSVKGRFTISRDNSKNTLYLQMNSLRAEDTAVYYCAKGTNVGSWSSLHYWGQGTLVTVSS

binding result [4]: no binding (tested: all below 3.5 RU) | binding result [5]: no binding (tested: all below 3.5 RU) | binding result [6]: no binding (tested: all below 3.5 RU) | binding result [7]: no binding (tested: all below 3.5 RU) | binding result [8]: no binding (tested: all below 3.5 RU) | binding result [9]: no binding (tested: all below 3.5 RU) | binding result [10]: no binding (tested: all below 3.5 RU) | binding result [11]: no binding (tested: all below 3.5 RU) | binding result [12]: no binding (tested: all below 3.5 RU) | binding result [13]: no binding (tested: all below 3.5 RU) | Affinity increase [14]: > 2 fold | Affinity increase [15]: 4.4 fold | Kd [16]: 56 nM
B13: AS170036 VL1VH1-VHS57K (scFv)
scFv: QSALTQPRSVSGSPGQSVTISCAGTSSDVGSENYVSWYQQHPGKAPKLMIYQVNKRASGVPDRFSGSKSGNTASLTISGLQAEDEADYYCASYRSSDHNIVFGGGTKLTVLGGGGSGGGGSGGGGSEVQLVESGGGLVQPGGSLRLSCAASGFTFSSYAMSWVRQAPGKGLEWVSTINSGTGKPYYADSVKGRFTISRDNSKNTLYLQMNSLRAEDTAVYYCAKNFFDGSWFLGPPAMDYWGQGTLVTVSSHHHHHH

binding result [4]: no binding (tested: all below 3.5 RU) | binding result [5]: no binding (tested: all below 3.5 RU) | binding result [6]: no binding (tested: all below 3.5 RU) | binding result [7]: no binding (tested: all below 3.5 RU) | binding result [8]: no binding (tested: all below 3.5 RU) | binding result [9]: no binding (tested: all below 3.5 RU) | binding result [10]: no binding (tested: all below 3.5 RU) | binding result [11]: no binding (tested: all below 3.5 RU) | binding result [12]: no binding (tested: all below 3.5 RU) | binding result [13]: no binding (tested: all below 3.5 RU) | Affinity increase [14]: > 2 fold | Affinity increase [15]: 2.7 fold | Kd [16]: 90 nM
B14: AS170036 VL1VH1-VHS57M (scFv)
scFv: QSALTQPRSVSGSPGQSVTISCAGTSSDVGSENYVSWYQQHPGKAPKLMIYQVNKRASGVPDRFSGSKSGNTASLTISGLQAEDEADYYCASYRSSDHNIVFGGGTKLTVLGGGGSGGGGSGGGGSEVQLVESGGGLVQPGGSLRLSCAASGFTFSSYAMSWVRQAPGKGLEWVSTINSGTGMPYYADSVKGRFTISRDNSKNTLYLQMNSLRAEDTAVYYCAKNFFDGSWFLGPPAMDYWGQGTLVTVSSHHHHHH
